Test results reported in patent publication US8273357B2, “Antigen-carbohydrate conjugates” (Massachusetts Institute of Technology, priority 2004, dated 2012).

T1: mannose receptor (Homo sapiens, UniProt P22897)
T1 sequence (P22897 19-1456): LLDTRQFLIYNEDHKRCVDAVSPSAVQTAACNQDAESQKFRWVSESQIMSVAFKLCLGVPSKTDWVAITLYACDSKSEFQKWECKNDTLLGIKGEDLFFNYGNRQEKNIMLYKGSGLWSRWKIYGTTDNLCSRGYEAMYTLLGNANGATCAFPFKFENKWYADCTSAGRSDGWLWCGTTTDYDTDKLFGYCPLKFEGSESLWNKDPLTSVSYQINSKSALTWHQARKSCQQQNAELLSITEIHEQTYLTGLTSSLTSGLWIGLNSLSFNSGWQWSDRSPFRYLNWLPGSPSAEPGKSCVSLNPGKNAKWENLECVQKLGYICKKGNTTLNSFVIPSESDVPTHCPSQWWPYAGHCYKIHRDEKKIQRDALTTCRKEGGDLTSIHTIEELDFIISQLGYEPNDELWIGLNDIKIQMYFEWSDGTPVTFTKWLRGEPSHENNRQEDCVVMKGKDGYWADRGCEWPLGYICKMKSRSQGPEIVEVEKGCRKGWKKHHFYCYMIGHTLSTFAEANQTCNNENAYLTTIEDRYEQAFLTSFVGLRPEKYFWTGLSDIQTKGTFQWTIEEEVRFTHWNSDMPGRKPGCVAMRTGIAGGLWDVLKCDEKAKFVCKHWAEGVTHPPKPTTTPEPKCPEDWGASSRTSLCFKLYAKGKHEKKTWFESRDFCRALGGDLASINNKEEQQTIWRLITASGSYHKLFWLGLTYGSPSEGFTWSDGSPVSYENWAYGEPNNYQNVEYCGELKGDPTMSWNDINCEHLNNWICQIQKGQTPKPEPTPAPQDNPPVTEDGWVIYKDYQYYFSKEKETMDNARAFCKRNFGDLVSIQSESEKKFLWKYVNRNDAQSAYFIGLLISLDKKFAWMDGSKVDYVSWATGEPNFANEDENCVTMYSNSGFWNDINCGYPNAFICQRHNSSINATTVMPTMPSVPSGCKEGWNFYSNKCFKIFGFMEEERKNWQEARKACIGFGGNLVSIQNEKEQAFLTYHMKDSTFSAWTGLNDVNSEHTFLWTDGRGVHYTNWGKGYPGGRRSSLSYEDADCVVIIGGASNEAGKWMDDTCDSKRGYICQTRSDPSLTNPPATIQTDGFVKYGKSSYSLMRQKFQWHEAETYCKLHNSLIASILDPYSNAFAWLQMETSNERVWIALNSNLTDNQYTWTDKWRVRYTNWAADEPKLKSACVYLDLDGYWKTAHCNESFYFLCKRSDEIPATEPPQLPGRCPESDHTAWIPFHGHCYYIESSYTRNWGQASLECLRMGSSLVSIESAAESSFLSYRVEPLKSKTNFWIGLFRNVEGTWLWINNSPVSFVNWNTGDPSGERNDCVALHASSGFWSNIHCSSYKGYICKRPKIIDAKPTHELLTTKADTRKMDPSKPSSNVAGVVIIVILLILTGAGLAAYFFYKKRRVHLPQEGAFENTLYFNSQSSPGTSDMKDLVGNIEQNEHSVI

B1: (OVA)-3-1: ovalbumin modified via SMCC with nonasaccharide 3-1, average of three saccharides per OVA (conjugate)
chain: GSIGAASMEFCFDVFKELKVHHANENIFYCPIAIMSALAMVYLGAKDSTRTQINKVVRFDKLPGFGDSIEAQCGTSVNVHSSLRDILNQITKPNDVYSFSLASRLYAEERYPILPEYLQCVKELYRGGLEPINFQTAADQARELINSWVESQTNGIIRNVLQPSSVDSQTAMVLVNAIVFKGLWEKAFKDEDTQAMPFRVTEQESKPVQMMYQIGLFRVASMASEKMKILELPFASGTMSMLVLLPDEVSGLEQLESIINFEKLTEWTSSNVMEERKIKVYLPRMKMEEKYNLTSVLMAMGITDVFSSSANLSGISSAESLKISQAVHAAHAEINEAGREVVGSAEAGVDAASVSEEFRADHPFLFCIKHIATNAVLFFGRCVSP

Key:
[1] = target: T1, mannose receptor; conditions: cited from earlier work
[2] = tested on: OTII T cells; assay: Adoptive transfer, immunization, OVA peptide/CFA rechallenge at day 8, OTII cell count at day ten; type: in vivo, mouse
Method: FIGS. 8A and 8B are a series of dot plots (FIG. 8A) and a graph (FIG. 8B) showing that the oligosaccharide-mediated targeting of steady state dendritic cells leads to T cell tolerance. […] 2×10^7 OTII splenocytes were adoptively transferred into B6.Ly5.2/Cr recipients and then immunized by subcutaneous injection with PBS, OVA (200 ng), (OVA)-3-1 (200 ng), (OVA)-3-1 (200 ng)+mBSA (50 μg) or OVA peptide (100 μg) in Incomplete Freund's Adjuvant. At 8 days after these initial immunizations, mice received an antigenic rechallenge of OVA peptide (100 μg) in Complete Freund's Adjuvant. On day ten mice were sacrificed and cells were isolated from the draining lymph node, total T cells were purified by negative selection and the number of OTII T cells were counted by FACS as described for FIG. 6. […] Purified T cells from each experimental group were seeded at 3×10^5 cells/well with purified […] dendritic cells (9×10^4/well) and were incubated for twenty-four hours±OVA peptide (100 μg mL^−1) with [^3H]thymidine (1 μCi) added for the last ten hours. Prior to [^3H]thymidine addition, an aliquot of supernatant was removed for IFN-γ determination by ELISA.
At three days post-immunization, antibody-based targeting of the DEC-205 receptor led to a 6.5-fold enhancement of T cell activation relative to non-targeted antigen^2. After seven days, however, the activated T cell population diminished in number by 88% and the remaining T cells were unresponsive to systemic challenge of antigen in the highly stimulatory adjuvant CFA. […] To more fully understand the immunological consequences of these enhancements, OVA peptide (100 μg) was administered in CFA at eight days post-antigen immunization and the T cells' ability to respond to DC-presented peptide in vitro was assayed two days later (FIGS. 8A and 8B)^2: A positive control for T cell tolerance, consisting of a high dose administration of OVA peptide (100 μg) in Incomplete Freund's Adjuvant was also included. This regimen has been shown in a number of different studies to led to a state of T cell unresponsiveness upon antigen rechallenge^24,25.

[3] = two days post-antigen rechallenge in CFA (day ten)

| Molecule | ligand for the mannose receptor [1] | number of OTII T cells compared with OVA immunized mice ([2]; day ten after immunization) | T cell deletion in vivo ([2]; mouse, in vivo) | number of OTII cells relative to the saline control group [2, 3] [fold] | number of OTII cells relative to unmodified (soluble) OVA [2, 3] [fold] |
| --- | --- | --- | --- | --- | --- |
| mBSA: BSA modified with approximately 25 mannose residues per protein molecule [reference compound] | nanomolar ligand |  |  |  |  |
| B1 |  | much greater number | not observed | 6 | 7.8 |
